Assay type in all cases: cell-based
One test concerns the target T1, GLP-1 receptor (GLP-1R) (Homo sapiens, UniProt P43220).
T1 construct: expressed in transfected cells; host or cells: HEK293 cells expressing surface GLP-1R and a cAMP responsive luciferase reporter
Nature of the test: GLP-1R activation, cAMP responsive luciferase reporter in HEK293 cells. Particulars: HEK293 cells expressing GLP-1R, 24 h. How it is done: HEK293 cells expressing surface GLP-1R and cAMP responsive luciferase reporter gene were seeded in 384 well plates at a density of 5000 cells per well. […] Subsequently, luciferase assay was performed using One-Glo luciferase reagent according manufacture's instruction (Promega).
HEK293 cells expressing surface GLP-1R and cAMP responsive luciferase reporter gene were seeded in 384 well plates at a density of 5000 cells per well. After 24 h incubation at 37° C. with 5% CO2, cells were treated with various concentrations of peptides and BLV1H12-GLP-1 clip fusion proteins and incubated for another 24 h. Subsequently, luciferase assay was performed using One-Glo luciferase reagent according manufacture's instruction (Promega).
In general terms: A reporter such as luciferase makes a cellular process visible.

The subject of the next test is Human T cells. Nature of the test: Inhibition of T cells activation (secreted TNF-α ELISA). Particulars: T cells activated by anti-CD3 and CD28 antibodies, 24 h. Here is the method: Human PBMCs were isolated from fresh venous blood of healthy donors through ficoll gradient centrifugation, followed by resuspension in RPMI1640 medium with 10% FBS and plating in 96-well plates at a density of 1×10^6 cells/mL. Human T cells were purified from the isolated PBMCs using T cell enrichment kit. Purified PBMCs and T cells were pretreated for 1 h at 37° C. with 5% CO2 with various concentrations of purified BLV1H12-Moka1 fusion antibodies and then activated by anti-CD3 and CD28 antibodies. After 24 h treatment, supernatant was collected for measurement of the levels of secreted TNF-α using ELISA kit.
Human T cells were purified from the isolated PBMCs using T cell enrichment kit. Purified T cells were pretreated for 1 h at 37° C. with 5% CO2 with various concentrations of purified BLV1H12-VM24 fusion antibodies and then activated by anti-CD3 and CD28 antibodies. After 24 h treatment, supernatant was collected for measurement of the levels of secreted TNF-a using ELISA kit. FIGS. 18B-C and Table 15 show the BLV1H12-VM24 fusion antibodies inhibitory activities on T cells activation.

A further test concerns TF-1 cells. Nature of the test: Proliferation assay on TF-1 cells (AlamarBlue). Conditions: 72 h. Here is the method:
TF-1 cells were obtained from American Type Culture Collection (ATCC), VA, and cultured in RPMI-1640 medium supplemented with 10% fetal bovine serum (FBS), penicillin, streptomycin and 2 ng/mL granulocyte-macrophage colony-stimulating factor (GM-CSF). For proliferation assay, TF-1 cells were washed three times with RPMI-1640 medium and resuspended in RPMI-1640 medium with 10% FBS and penicillin and streptomycin at a density of 1.5×10^5 cells/ml. Cells were plated in 96-well plates and treated with varied concentrations of BLV1H12-hEPO fusion antibodies. After 72 h of incubation at 37° C. with 5% CO2, cells viabilities were measured using AlamarBlue (Invitrogen) assay following manufacture's instruction. FIG. 21 and Table 18 show the proliferative activity of Ab-hEPO fusion antibodies on TF1 cells.

T1 sequence (P43220 24-463, species assumed): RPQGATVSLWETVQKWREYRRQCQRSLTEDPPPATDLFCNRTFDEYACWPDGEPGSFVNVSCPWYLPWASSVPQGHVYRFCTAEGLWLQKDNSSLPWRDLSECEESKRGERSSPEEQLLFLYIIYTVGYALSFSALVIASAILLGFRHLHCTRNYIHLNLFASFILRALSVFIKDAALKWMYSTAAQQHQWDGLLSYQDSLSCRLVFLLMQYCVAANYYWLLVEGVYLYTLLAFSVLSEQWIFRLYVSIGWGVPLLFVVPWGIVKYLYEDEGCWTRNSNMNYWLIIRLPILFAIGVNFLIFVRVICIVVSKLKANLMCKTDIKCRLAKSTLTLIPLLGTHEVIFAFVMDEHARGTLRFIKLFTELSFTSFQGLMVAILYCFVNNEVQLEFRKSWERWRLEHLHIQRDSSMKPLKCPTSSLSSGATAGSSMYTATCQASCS

In the case of “Ab-Ex4(RN): BLV1H12-Ex-4 fusion antibody treated with Factor Xa protease to release N-terminal of Ex-4”, the “RLU (luciferase reporter)” value with GLP-1 receptor (GLP-1R) (0.00248 nM) was found to be 24120; in the test with GLP-1 receptor (GLP-1R) (0.00496 nM) it was 26320; with GLP-1 receptor (GLP-1R) (0.00992 nM) it was 28140; with GLP-1 receptor (GLP-1R) (0.01984 nM), 33500; with GLP-1 receptor (GLP-1R) (0.03967 nM), 34180; in the test with GLP-1 receptor (GLP-1R) (0.07935 nM), 48860. The “RLU (luciferase reporter)” value with GLP-1 receptor (GLP-1R) (0.31738 nM) amounted to 80740; with GLP-1 receptor (GLP-1R) (0.63477 nM) it was 117240; in the test with GLP-1 receptor (GLP-1R) (1.26953 nM), 128740; in the test with GLP-1 receptor (GLP-1R) (2.53906 nM), 153820; with GLP-1 receptor (GLP-1R) (5.07813 nM) it was 163020; with GLP-1 receptor (GLP-1R) (10.15625 nM), 169360. Further, the “RLU (luciferase reporter)” value in the test with GLP-1 receptor (GLP-1R) (20.3125 nM) stood at 161380; in the test with GLP-1 receptor (GLP-1R) (40.625 nM) it was 154920; with GLP-1 receptor (GLP-1R) (81.25 nM) it was 163700; with GLP-1 receptor (GLP-1R) (162.5 nM), 163860; with GLP-1 receptor (GLP-1R) (325 nM), 164160; with GLP-1 receptor (GLP-1R) (650 nM), 155700. The “RLU (luciferase reporter)” value with GLP-1 receptor (GLP-1R) (1300 nM) is on record as 168740.
In the case of “Ab-Ex4: Exendin-4 with Factor Xa cleavage site and GGGGS linkers grafted into BLV1H12 CDR3H; DNA SEQ ID NO: 8”, the “RLU (luciferase reporter)” value with GLP-1 receptor (GLP-1R) (1.26953 nM) stood at 6120; in the test with GLP-1 receptor (GLP-1R) (2.53906 nM), 6360; with GLP-1 receptor (GLP-1R) (5.07813 nM), 8500; with GLP-1 receptor (GLP-1R) (10.15625 nM), 10420; with GLP-1 receptor (GLP-1R) (20.3125 nM), 19340; in the test with GLP-1 receptor (GLP-1R) (40.625 nM), 27960. In addition, the “RLU (luciferase reporter)” value is 54800 with GLP-1 receptor (GLP-1R) (81.25 nM), 90660 in the test with GLP-1 receptor (GLP-1R) (162.5 nM), 117900 with GLP-1 receptor (GLP-1R) (325 nM) and 134760 with GLP-1 receptor (GLP-1R) (650 nM).
For the substance “Ab-VM24 L1: Vm24 in BLV1H12 CDR3H, linker=GGGGS; DNA SEQ ID NO: 13”, the “F.I. (secreted TNF-α, ELISA)” value with Human T cells (0.45725 nM) was 3427.004; in the test on Human T cells (1.37174 nM), 3265.969; with Human T cells (4.11523 nM) it was 3499.82; with Human T cells (12.34568 nM), 3627.431; with Human T cells (37.03704 nM) it was 3575.4815; in the test with Human T cells (111.11111 nM), 3085.439. For the same substance, the “F.I. (secreted TNF-α, ELISA)” value came out at 1853.645 in the test with Human T cells (333.33333 nM) and 990.818 in the test on Human T cells (1000 nM).
Take “Ab-VM24-L2: Vm24 in BLV1H12 CDR3H, first linker=GGGSGGGGS and second linker=GGGGSGGGS; DNA SEQ ID NO: 14”: the “F.I. (secreted TNF-α, ELISA)” value is 3156.626 in the test with Human T cells (0.45725 nM); 3345.846 in the test with Human T cells (1.37174 nM); 3518.316 with Human T cells (4.11523 nM); 3607.5755 with Human T cells (12.34568 nM); 3508.0475 in the test with Human T cells (37.03704 nM); 3220.2475 in the test on Human T cells (111.11111 nM). Further, the results for the “F.I. (secreted TNF-α, ELISA)” value with Human T cells (333.33333 nM) and with Human T cells (1000 nM) were 2465.838 and 1306.0215, respectively.
For “Ab-hEPO: human EPO with GGGGS linkers grafted into BLV1H12 CDR3H; DNA SEQ ID NO: 10”, the “F.I. (AlamarBlue, cell viability)” value was found to be 4198.65 in the test on TF-1 cells (0.00236 nM); 4757.196 with TF-1 cells (0.01178 nM); 5265.069 in the test on TF-1 cells (0.05888 nM); 6430.723 with TF-1 cells (0.2944 nM); 8963.889 in the test with TF-1 cells (1.472 nM); 10330.18 with TF-1 cells (7.36 nM). Further, the “F.I. (AlamarBlue, cell viability)” value in the test with TF-1 cells (36.8 nM) worked out at 10776.73; in the test with TF-1 cells (184 nM), 10330.44; in the test on TF-1 cells (4.71E−04 nM), 4324.037; in the test on TF-1 cells (9.42E−05 nM), 4361.92.

These data come from patent publication US20140050720A1, “ULTRALONG COMPLEMENTARITY DETERMINING REGIONS AND USES THEREOF” (THE SCRIPPS RESEARCH INSTITUTE, priority 2012, published 2014).
